Test results taken from publication PMC9165289, “Theranostic PSMA ligands with optimized backbones for intraoperative multimodal imaging and photodynamic therapy of prostate cancer” (European Journal of Nuclear Medicine and Molecular Imaging, 2022).
Like-named read-outs stand apart in the source and are kept apart here.

Experiments:
LS174T-PSMA cells [1] = tested on: LS174T-PSMA cells; design: method as in PMID 33408764; settings: head-to-head comparison; cited from earlier work
[2] = tested on: LS174T-PSMA and LS174T wildtype xenografts; experiment: PSMA-N064 blocking experiment, ex vivo biodistribution; type: in vivo, BALB/c nude mice; settings: 0.3 nmol, 10 MBq, i.v., 2 h p.i., n=5
Protocol: (§1) All animal experiments were approved by the institutional Animal Welfare Committee of the Radboud University Medical Center and were conducted in accordance to the guidelines of the Revised Dutch Act on Animal Experimentation. Animal experiments were performed in 8–10 weeks old male BALB/c nude mice (Janvier). The mice were housed in individually ventilated cages (Blue line IVC, 3–5 mice per cage), under standard non-sterile conditions with cage enrichment present. There was free access to chlorophyll-free animal chow (Sniff Voer) and water. Mice were subcutaneously inoculated with 3.0 × 10^6 LS174T-PSMA cells in the right flank and 1.5 × 10^6 LS174T WT cells in the left flank (diluted in 200-µl RPMI 1640 medium). When xenografts were approximately 0.5 cm^3 (10–14 days after injection), mice were block-randomized into groups based on tumor size. The researchers were not blinded for the experimental groups.
Five mice per group were intravenously injected with either 0.1 nmol PSMA-N064, 0.3 nmol PSMA-N064, 0.1 nmol PSMA-N064 + 10 nmol unlabeled PSMA-617 (100x excess) or PSMA-617. Ligands were labeled with 10 MBq ^111In in PBS+0.5% (w/v) BSA. For the ex vivo biodistribution four groups (one for each experimental condition) of five mice were included. Two hours p.i., all mice from all groups were euthanized by CO2/O2-asphyxiation and relevant tissues were dissected, weighed and measured for radioactivity in a gamma-counter (2480 WIZARD^2 Automatic Gamma Counter, PerkinElmer).

[3] = tested on: LS174T-PSMA and LS174T wildtype xenografts; experiment: µSPECT/CT and NIR fluorescence imaging; type: in vivo, BALB/c nude mice; settings: 0.3 nmol, 10 MBq/mouse, 2 h p.i.
Text: Mice were intravenously injected with 0.3 nmol PSMA ligand, labeled with 10 MBq ^111In (molar activity 33.3 MBq/nmol) in PBS + 0.5% (w/v) BSA. For the ex vivo biodistribution, five groups (one group for each ligand) of four mice were included. Two hours p.i., all mice were euthanized by CO2/O2-asphyxiation. For two mice of each group (2 mice/ligand), background-subtracted fluorescence images were acquired with the IVIS imaging system (Xenogen VivoVision IVIS Lumina II, PerkinElmer), with a 640-nm excitation filter and a Cy5.5 emission filter and an acquisition time of 10 s. Next, µSPECT/CT imaging was performed in the same two mice per group, with a 1.0-mm diameter pinhole mouse collimator tube (U-SPECT II, MILabs). Mice were scanned for 30 min followed by a CT scan for anatomical reference (spatial resolution 160 μm, 615 μA, 65 kV). MILabs reconstruction software was used to reconstruct the µSPECT/CT scans, via an ordered-subset expectation maximization algorithm, energy windows 154–188 keV and 220–270 keV, 3 iterations, 16 subsets, and voxel size of 0.75 mm. […] NIR fluorescence images were analyzed using Living Image software (PerkinElmer, version 4.2). After imaging, relevant tissues were dissected, weighed, and measured for radioactivity in a gamma-counter (2480 WIZARD^2 Automatic Gamma Counter, PerkinElmer). […]

[4] = tested on: LS174T-PSMA and LS174T wildtype xenografts; experiment: ex vivo biodistribution of 111In-labeled ligands; design: species or system BALB/c nude mice; settings: 0.3 nmol, 2 h p.i.
Protocol: as §1
(§2) Mice were intravenously injected with 0.3 nmol PSMA ligand, labeled with 10 MBq ^111In (molar activity 33.3 MBq/nmol) in PBS + 0.5% (w/v) BSA. For the ex vivo biodistribution, five groups (one group for each ligand) of four mice were included. Two hours p.i., all mice were euthanized by CO2/O2-asphyxiation. For two mice of each group (2 mice/ligand), background-subtracted fluorescence images were acquired with the IVIS imaging system (Xenogen VivoVision IVIS Lumina II, PerkinElmer), with a 640-nm excitation filter and a Cy5.5 emission filter and an acquisition time of 10 s. Next, µSPECT/CT imaging was performed in the same two mice per group, with a 1.0-mm diameter pinhole mouse collimator tube (U-SPECT II, MILabs). Mice were scanned for 30 min followed by a CT scan for anatomical reference (spatial resolution 160 μm, 615 μA, 65 kV). MILabs reconstruction software was used to reconstruct the µSPECT/CT scans, via an ordered-subset expectation maximization algorithm, energy windows 154–188 keV and 220–270 keV, 3 iterations, 16 subsets, and voxel size of 0.75 mm. SPECT/CT maximum intensity projections (MIPs) were created using the Inveon Research Workplace software (Siemens Preclinical Solutions, version 4.1). NIR fluorescence images were analyzed using Living Image software (PerkinElmer, version 4.2). After imaging, relevant tissues were dissected, weighed, and measured for radioactivity in a gamma-counter (2480 WIZARD^2 Automatic Gamma Counter, PerkinElmer). In addition, a blocking experiment with PSMA-N064 and PSMA-617 was performed. Full experimental procedures and results can be found in the supplementary data (Page 5, Supplementary Fig. 3).

[5] = ex vivo biodistribution of 111In-labeled ligands; design: species or system BALB/c nude mice; settings: male, BALB/c nude, mouse, iv, 0.3 nmol, total radioactivity, 2 h p.i.; for tissue uptake at 2 h: 10 MBq/mouse, i.v.
Protocol: as §1, §2

LS174T-PSMA cells [6] = experiment: in vitro binding and internalization assay; type: cell-based, human; settings: for PSMA-specific membrane binding and internalization: corrected for non-specific binding (2-PMPA)
Protocol: The binding and internalization characteristics of the ligands were determined using LS174T-PSMA cells. Cells were cultured to confluency in 6-well plates followed by incubation with 50,000 counts per minute of ^111In-labeled ligand (0.1–0.25 pmol/well) in 1-ml RPMI + 0.5% BSA (37 °C, 2 h). Non-specific binding was determined by coincubation with 2(phosphonomethyl)-pentane-1,5-dioic acid (2-PMPA, 21.57 µM). PSMA-specific binding was defined as total binding minus the non-specific binding. To retrieve the membrane-bound fraction, cells were washed twice with PBS and incubated for 10 min at 0 °C with acid buffer (154-mM NaCl, 0.1 M acetic acid, pH 2.6). After incubation, the membrane-bound fraction was collected. Then, cells were washed and lysed with 0.1 M NaOH, and the cell lysate (intracellular activity) was collected. Intracellular and membrane-bound activity fractions were measured in a gamma-counter (2480 WIZARD^2 Automatic Gamma Counter, PerkinElmer).

PSMA [7] = tested on: PSMA; design: method as in PMID 27789722, PMID 29651565; settings: reported in the literature; cited from earlier work
PSMA [8] = tested on: PSMA; design: method as in PMID 27789722, PMID 29651565; settings: reported in the literature; cited from earlier work; remark: listed apart in the source
[9] = LS174T wildtype tumor, n=4, read-out: Biodistribution Tumor- LS174T
[10] = LS174T-PSMA tumor, n=4, read-out: Biodistribution Tumor+ LS174T-PSMA
[11] = adrenals, n=4, read-out: Biodistribution Adrenals
[12] = blood, n=4, read-out: Biodistribution Blood
[13] = bone marrow, n=4, read-out: Biodistribution Bone marrow
[14] = bone, n=4, read-out: Biodistribution Bone
[15] = duodenum, n=4, read-out: Biodistribution Duodenum
[16] = heart, n=4, read-out: Biodistribution Heart
[17] = kidney, n=4, read-out: Biodistribution Kidney
[18] = liver, n=4, read-out: Biodistribution Liver
[19] = lung, n=4, read-out: Biodistribution Lung
[20] = muscle, n=4, read-out: Biodistribution Muscle
[21] = pancreas, n=4, read-out: Biodistribution Pancreas
[22] = prostate, n=4, read-out: Biodistribution Prostate
[23] = salivary glands, n=4, read-out: Biodistribution Salivary glands
[24] = spleen, n=4, read-out: Biodistribution Spleen
[25] = stomach, n=4, read-out: Biodistribution Stomach
[26] = tumor (LS174T-PSMA xenograft) / blood, read-out: Tumor/Blood ratio
[27] = tumor (LS174T-PSMA xenograft) / kidney, read-out: Tumor/Kidney ratio
[28] = tumor (LS174T-PSMA xenograft) / liver, read-out: Tumor/Liver ratio
[29] = tumor (LS174T-PSMA xenograft) / spleen, read-out: Tumor/Spleen ratio

In the case of O=C(O)CC[C@H](NC(=O)N[C@@H](CCCCNC(=O)[C@H](Cc1ccc2ccccc2c1)NC(=O)[C@H]1CC[C@H](CNC(=O)CN2CCN(CC(=O)O)CCN(CC(=O)O)CCN(CC(=O)O)CC2)CC1)C(=O)O)C(=O)O [PSMA-617], the internalization ratio (LS174T-PSMA cells [1]) is listed as 46% and the “Biodistribution Tumor+ LS174T-PSMA” value [2] is listed as 19 ± 2 %ID/g.
In the case of CC(=O)N[C@@H](CCCCNC(=O)CCCCCNC(=O)[C@H](CCC(=O)O)NC(=O)[C@H](CCC(=O)O)NC(=O)[C@H](Cc1ccccc1)NC(=O)[C@H](CCCCNC(=O)CCCCCNC(=O)OCCCOc1cccc2c3n4c(c12)=NC1=NC(=Nc2c5ccccc5c(n2[Si]4(O[Si](C)(C)CCC[N+](CCCS(=O)(=O)[O-])(CCCS(=O)(=O)O)CCCS(=O)(=O)O)O[Si](C)(C)CCC[N+](CCCS(=O)(=O)[O-])(CCCS(=O)(=O)O)CCCS(=O)(=O)O)N=C2N=C(N=3)c3ccccc32)c2ccccc21)NC(=O)CCC(C(=O)O)N1CCN(CC(=O)O)CCN(CC(=O)O)CCN(CC(=O)O)CC1)C(=O)O (some centres unmarked) [PSMA-N064inc, reference compound], the “renal ligand accumulation on images” value [3] is reported as “lowest”, the Tumor/Negative tumor ratio [4] is reported as 1.1 ± 0.5 and the Tumor/Prostate ratio [4] is reported as 1.3 ± 0.9. For the same compound, the Tumor/Salivary gland ratio [4] was 1.6 ± 0.5, the tissue uptake at 2 h [5, 9] was 0.4 ± 0.1 %ID/g and the tissue uptake at 2 h [5, 10] was 0.5 ± 0.2 %ID/g. For the same compound, the tissue uptake at 2 h [5, 11] was 0.7 ± 0.6 %ID/g, the tissue uptake at 2 h [5, 12] was 0.3 ± 0.2 %ID/g and the tissue uptake at 2 h [5, 13] was 0.1 ± 0.03 %ID/g. The tissue uptake at 2 h [5, 14] was 0.2 ± 0.1 %ID/g, the tissue uptake at 2 h [5, 15] was 0.2 ± 0.04 %ID/g and the tissue uptake at 2 h [5, 16] was 0.3 ± 0.1 %ID/g. The tissue uptake at 2 h [5, 17] was 47 ± 6 %ID/g, the tissue uptake at 2 h [5, 18] was 0.6 ± 0.1 %ID/g and the tissue uptake at 2 h [5, 19] was 0.3 ± 0.1 %ID/g. For the same compound, the tissue uptake at 2 h [5, 20] was 0.1 ± 0.1 %ID/g, the tissue uptake at 2 h [5, 21] was 0.1 ± 0.04 %ID/g and the tissue uptake at 2 h [5, 22] was 0.6 ± 0.7 %ID/g. It also gave a tissue uptake at 2 h [5, 23] of 0.3 ± 0.05 %ID/g, a tissue uptake at 2 h [5, 24] of 0.2 ± 0.04 %ID/g and a tissue uptake at 2 h [5, 25] of 0.4 ± 0.1 %ID/g. For the same compound, the tissue to tissue ratio at 2 h [5, 26] was 1.5 ± 0.6, the tissue to tissue ratio at 2 h [5, 27] was 0.01 ± 0.003 and the tissue to tissue ratio at 2 h [5, 28] was 0.7 ± 0.2. For the same compound, the tissue to tissue ratio at 2 h [5, 29] was 2.1 ± 0.5 and the “PSMA-specific membrane binding and internalization” value (LS174T-PSMA cells [6]) was “no binding and internalization”.
For PSMA-1007, the internalization ratio (PSMA [7]) is listed as 67% and the IC50 (PSMA [8]) is listed as 4.2 ± 0.5 nM.
Work on C[Si](C)(CCC[N+](CCCS(=O)(=O)[O-])(CCCS(=O)(=O)O)CCCS(=O)(=O)O)O[Si]1(O[Si](C)(C)CCC[N+](CCCS(=O)(=O)[O-])(CCCS(=O)(=O)O)CCCS(=O)(=O)O)n2c3c4ccccc4c2N=C2N=C(N=c4c5c(OCCCOC(=O)NCCCCCC(=O)NCCCC[C@H](NC(=O)CN6CCN(CC(=O)O)CCN(CC(=O)O)CCN(CC(=O)O)CC6)C(=O)NCCCC[C@H](NC(=O)[C@H](CCC(=O)O)NC(=O)c6cccnc6)C(=O)NCc6ccc(C(=O)N[C@@H](Cc7ccc8ccccc8c7)C(=O)NCCCC[C@H](NC(=O)N[C@@H](CCC(=O)O)C(=O)O)C(=O)O)cc6)cccc5c(n41)=NC1=NC(=N3)c3ccccc31)c1ccccc12 [PSMA-N02] yielded a Tumor/Negative tumor ratio [4] of 42.2 ± 16.4, a Tumor/Prostate ratio [4] of 46.9 ± 13.8 and a Tumor/Salivary gland ratio [4] of 39.2 ± 3.7. It also gave a tissue uptake at 2 h [5, 9] of 0.6 ± 0.2 %ID/g, a tissue uptake at 2 h [5, 10] of 23 ± 2 %ID/g and a tissue uptake at 2 h [5, 11] of 1.2 ± 0.2 %ID/g. It also gave a tissue uptake at 2 h [5, 12] of 0.5 ± 0.01 %ID/g, a tissue uptake at 2 h [5, 13] of 0.1 ± 0.1 %ID/g and a tissue uptake at 2 h [5, 14] of 0.5 ± 0.04 %ID/g. It also gave a tissue uptake at 2 h [5, 15] of 0.4 ± 0.05 %ID/g, a tissue uptake at 2 h [5, 16] of 0.4 ± 0.05 %ID/g and a tissue uptake at 2 h [5, 17] of 99 ± 12 %ID/g. For the same compound, the tissue uptake at 2 h [5, 18] was 1.1 ± 0.1 %ID/g, the tissue uptake at 2 h [5, 19] was 1 ± 0.3 %ID/g and the tissue uptake at 2 h [5, 20] was 0.2 ± 0.04 %ID/g. The tissue uptake at 2 h [5, 21] was 0.3 ± 0.05 %ID/g, the tissue uptake at 2 h [5, 22] was 0.5 ± 0.1 %ID/g and the tissue uptake at 2 h [5, 23] was 0.6 ± 0.1 %ID/g. It also gave a tissue uptake at 2 h [5, 24] of 1.6 ± 0.2 %ID/g, a tissue uptake at 2 h [5, 25] of 0.5 ± 0.1 %ID/g and a tissue to tissue ratio at 2 h [5, 26] of 43.1 ± 4.1. The tissue to tissue ratio at 2 h [5, 27] was 0.3 ± 0.01, the tissue to tissue ratio at 2 h [5, 28] was 21.6 ± 1.6 and the tissue to tissue ratio at 2 h [5, 29] was 14.3 ± 2.5. For the same compound, the “internalization percentage (percentage of cell-associated ligand that was internalized)” value (LS174T-PSMA cells [6]; 37 °C, 2 h) was 73–90% and the “PSMA-specific membrane binding and internalization” value (LS174T-PSMA cells [6]) was “highest membrane-bound and internalized fraction”.
